For data set [1], the target named is T1, VtlR (rVtlR) (Agrobacterium tumefaciens C58) (UniProt A9CI74).
T1 sequence: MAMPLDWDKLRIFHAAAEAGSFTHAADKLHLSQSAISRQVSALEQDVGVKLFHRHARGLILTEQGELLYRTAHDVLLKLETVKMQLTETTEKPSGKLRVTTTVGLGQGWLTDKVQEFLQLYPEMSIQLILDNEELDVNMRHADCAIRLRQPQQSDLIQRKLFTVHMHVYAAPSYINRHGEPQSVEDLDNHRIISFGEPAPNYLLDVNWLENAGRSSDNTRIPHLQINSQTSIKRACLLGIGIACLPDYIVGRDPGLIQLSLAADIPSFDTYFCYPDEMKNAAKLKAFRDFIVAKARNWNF
Description: EMSA. Background: A gel shift assay detects complexes by their altered migration in electrophoresis.

Data set [2] deals with T1, VtlR (rVtlR) (Agrobacterium tumefaciens C58). Description: competition.

Take “GAACTGGGAGGAAAAGCCACCGTGTGCATCAACTGAGAGCTATTTGGTGTTTTTTTGTGCACGAAACAACTCTTTTTTGTGCAGGTCAGGCATGCGTCGCACGCAGCCCTCGATATTTCCGGTATATTTTATGTGCAAAGCTGAAGAAGGGCGCCTGCGCGCCCCTCTTGCTTCTACCTTTACAAGGCTTTGAATTTTAAAGATTATCTTTCGACGTCGATTATTTTTACGTCAGAAGTTCCAGTTCCGC (double strand) [PabcR1]”: the binding entry in data set [1] is given as “binds”.
“GCCGTGGGCAAGCGTGACAGCTAACTAAAATATGGGAGTGGCAAGAATGCAAAACAAGGTTGCATCATGCGATATTTCGCCAATTTGGAGAAAATTCTTGCGGGTAAAAAAAGAGGGCCGCCG (double strand) [PabcR2]”: in data set [2], the binding entry is recorded as “no binding”.

(Values after PMC7486931.)
